# Patent US20180185504A1
# What was measured:
# [1] = molecular target: mouse PRLR construct with an HA tag on HEK293/mPRLR cells (mouse) (UniProt Q08501); assay: FACS on HEK293/mPRLR cells
# [2] = molecular target: human prolactin (PRL) (human) (UniProt P01236); assay: ELISA: dimeric PRLR (3.38 pM to 200 nM) on plate-coated human PRL (1 µg/mL), HRP anti-Fc-gamma detection
# [3] = molecular target: human prolactin receptor (PRLR) on cells (human) (UniProt P16471); assay: cell-based or functional assay
# Sequence of human prolactin receptor (PRLR) on cells (human) (P16471 25-622 limits assumed): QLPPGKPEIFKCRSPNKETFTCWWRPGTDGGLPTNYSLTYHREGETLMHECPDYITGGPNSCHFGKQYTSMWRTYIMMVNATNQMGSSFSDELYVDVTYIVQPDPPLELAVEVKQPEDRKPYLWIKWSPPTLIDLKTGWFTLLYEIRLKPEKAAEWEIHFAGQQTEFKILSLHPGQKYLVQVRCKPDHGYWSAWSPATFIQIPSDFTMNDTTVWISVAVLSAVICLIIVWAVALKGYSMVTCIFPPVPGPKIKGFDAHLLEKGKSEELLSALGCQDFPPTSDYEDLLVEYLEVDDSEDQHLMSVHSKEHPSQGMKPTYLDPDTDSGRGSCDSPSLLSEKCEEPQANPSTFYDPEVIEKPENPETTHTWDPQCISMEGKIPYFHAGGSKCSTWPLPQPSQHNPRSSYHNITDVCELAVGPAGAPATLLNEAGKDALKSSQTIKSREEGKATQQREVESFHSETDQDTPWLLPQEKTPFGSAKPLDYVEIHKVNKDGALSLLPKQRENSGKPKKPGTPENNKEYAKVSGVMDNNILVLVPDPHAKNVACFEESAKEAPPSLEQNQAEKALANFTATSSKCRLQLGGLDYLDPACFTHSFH
# Sequence of mouse PRLR construct with an HA tag on HEK293/mPRLR cells (mouse) (Q08501 20-608): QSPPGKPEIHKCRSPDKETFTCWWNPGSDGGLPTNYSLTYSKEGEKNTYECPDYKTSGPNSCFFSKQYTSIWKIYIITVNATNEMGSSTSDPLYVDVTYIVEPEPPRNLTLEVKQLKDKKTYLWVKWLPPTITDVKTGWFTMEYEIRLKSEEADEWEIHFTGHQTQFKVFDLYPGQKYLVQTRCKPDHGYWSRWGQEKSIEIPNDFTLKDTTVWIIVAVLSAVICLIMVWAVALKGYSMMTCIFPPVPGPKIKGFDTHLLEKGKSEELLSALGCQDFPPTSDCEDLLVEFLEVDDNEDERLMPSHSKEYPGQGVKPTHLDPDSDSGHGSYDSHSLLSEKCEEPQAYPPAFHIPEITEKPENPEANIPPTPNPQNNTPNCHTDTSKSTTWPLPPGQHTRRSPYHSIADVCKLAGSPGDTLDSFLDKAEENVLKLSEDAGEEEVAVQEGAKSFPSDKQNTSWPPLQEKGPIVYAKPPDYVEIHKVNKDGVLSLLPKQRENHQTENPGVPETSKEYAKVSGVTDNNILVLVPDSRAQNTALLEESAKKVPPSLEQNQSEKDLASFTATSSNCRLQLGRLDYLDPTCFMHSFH
# Sequence of human prolactin (PRL) (human) (P01236 29-227 limits assumed): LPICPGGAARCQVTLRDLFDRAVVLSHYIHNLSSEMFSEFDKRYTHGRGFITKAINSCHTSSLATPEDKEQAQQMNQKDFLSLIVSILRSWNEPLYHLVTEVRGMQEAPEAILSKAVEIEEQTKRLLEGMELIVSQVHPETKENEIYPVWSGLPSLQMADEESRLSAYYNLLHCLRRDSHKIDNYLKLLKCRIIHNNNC
substance,measurement,setting,value
Isotype Ctrl I (antibody),FACS Cell Binding (Fold Above Background),[1],1 fold
dimeric form of cynomolgus monkey (Macaca fascicularis) PRLR (Example 12 ELISA) (Fc fusion),EC50,[2],5.7 nM
human prolactin (PRL) (from UniProt P01236 29-227) (ligand),"EC50, STAT5-luciferase reporter in HEK293/PRLR/STAT5-Luc cells",[3],2.1 nM
